Assay results: patent US20220229068A1, “DETECTION OF PROTEIN TO PROTEIN INTERACTIONS” (THE GOVERNING COUNCIL OF THE UNIVERSITY OF TORONTO, priority 2019, published 2022)

What was measured:
[1] = target: SKP2 (prey, CIC format) (human) (UniProt Q13309); assay: SIMPL ELISA, bait-IN/prey-CIC
[2] = target: T1, ARFIP2 (prey, CIC format) (human) (UniProt P53365); assay: SIMPL ELISA, bait-IN/prey-CIC
T1 sequence (looked up): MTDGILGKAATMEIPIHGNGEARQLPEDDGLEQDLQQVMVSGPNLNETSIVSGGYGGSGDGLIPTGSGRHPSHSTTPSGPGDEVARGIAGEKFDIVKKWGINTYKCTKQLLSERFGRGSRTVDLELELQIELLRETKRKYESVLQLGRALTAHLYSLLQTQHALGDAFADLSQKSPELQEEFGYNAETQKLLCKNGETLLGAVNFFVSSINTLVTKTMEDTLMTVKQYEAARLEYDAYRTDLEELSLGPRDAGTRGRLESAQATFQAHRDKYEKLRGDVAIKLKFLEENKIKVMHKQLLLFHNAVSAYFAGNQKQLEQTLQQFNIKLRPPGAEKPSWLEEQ

[3] = target: RAD23A (prey, CIC format) (human) (UniProt P54725); assay: SIMPL ELISA, bait-IN/prey-CIC
[4] = target: PEX16 (prey, CIC format) (human) (UniProt Q9Y5Y5); assay: SIMPL ELISA, bait-IN/prey-CIC
[5] = target: RAP1A (prey, CIC format) (human) (UniProt P62834); assay: SIMPL ELISA, bait-IN/prey-CIC
[6] = target: CDK6 (prey, CIC format) (human) (UniProt Q00534); assay: SIMPL ELISA, bait-IN/prey-CIC
[7] = target: T2, PEX11B (prey, CIC format) (human) (UniProt O96011); assay: SIMPL ELISA, bait-IN/prey-CIC
T2 sequence (looked up): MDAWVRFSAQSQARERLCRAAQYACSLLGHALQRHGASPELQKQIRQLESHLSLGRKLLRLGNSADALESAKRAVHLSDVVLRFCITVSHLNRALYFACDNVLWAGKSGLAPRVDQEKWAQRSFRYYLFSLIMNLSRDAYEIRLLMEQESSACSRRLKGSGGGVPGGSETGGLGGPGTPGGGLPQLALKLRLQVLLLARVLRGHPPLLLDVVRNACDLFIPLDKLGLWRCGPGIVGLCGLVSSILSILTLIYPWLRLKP

[8] = target: CCNA1 (prey, CIC format) (human) (UniProt P78396); assay: SIMPL ELISA, bait-IN/prey-CIC
[9] = target: FOS (prey, CIC format) (human) (UniProt P01100); assay: SIMPL ELISA, bait-IN/prey-CIC
[10] = target: T3, NRG1 (prey, CIC format) (human) (UniProt Q02297); assay: SIMPL ELISA, bait-IN/prey-CIC
T3 sequence (looked up): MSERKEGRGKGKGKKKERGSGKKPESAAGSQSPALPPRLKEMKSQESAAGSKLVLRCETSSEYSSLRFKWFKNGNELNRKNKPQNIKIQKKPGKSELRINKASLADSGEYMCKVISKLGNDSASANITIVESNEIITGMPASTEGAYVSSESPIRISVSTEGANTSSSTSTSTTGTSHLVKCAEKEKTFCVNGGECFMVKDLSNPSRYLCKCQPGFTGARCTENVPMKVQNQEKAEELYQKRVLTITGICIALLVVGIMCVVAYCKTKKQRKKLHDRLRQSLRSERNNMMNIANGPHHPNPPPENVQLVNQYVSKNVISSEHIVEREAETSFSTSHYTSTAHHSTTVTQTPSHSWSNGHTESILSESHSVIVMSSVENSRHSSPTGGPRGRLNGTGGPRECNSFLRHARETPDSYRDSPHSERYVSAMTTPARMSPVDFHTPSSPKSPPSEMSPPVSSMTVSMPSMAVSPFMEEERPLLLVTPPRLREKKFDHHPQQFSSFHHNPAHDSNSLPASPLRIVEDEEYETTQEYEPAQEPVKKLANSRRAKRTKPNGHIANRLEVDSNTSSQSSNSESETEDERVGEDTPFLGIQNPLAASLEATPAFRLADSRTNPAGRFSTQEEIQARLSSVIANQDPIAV

[11] = target: SKR-2 (C. elegans prey, IC format) (C. elegans); assay: SIMPL ELISA, C. elegans lysate, IN/IC; ratio of spliced signal to total signal
[12] = target: SKR-2 (C. elegans prey, CIC format) (C. elegans); assay: SIMPL ELISA, C. elegans lysate, IN/CIC; ratio of spliced signal to total signal
[13] = target: FGFR1 (prey, CIC format) (human) (UniProt P11362); assay: SIMPL ELISA, bait-IN/prey-CIC
[14] = target: NCK1 (prey, CIC format) (human) (UniProt P16333); assay: SIMPL ELISA, bait-IN/prey-CIC
[15] = target: T4, RB1 (prey, CIC format) (human) (UniProt P06400); assay: SIMPL ELISA, bait-IN/prey-CIC
T4 sequence (looked up): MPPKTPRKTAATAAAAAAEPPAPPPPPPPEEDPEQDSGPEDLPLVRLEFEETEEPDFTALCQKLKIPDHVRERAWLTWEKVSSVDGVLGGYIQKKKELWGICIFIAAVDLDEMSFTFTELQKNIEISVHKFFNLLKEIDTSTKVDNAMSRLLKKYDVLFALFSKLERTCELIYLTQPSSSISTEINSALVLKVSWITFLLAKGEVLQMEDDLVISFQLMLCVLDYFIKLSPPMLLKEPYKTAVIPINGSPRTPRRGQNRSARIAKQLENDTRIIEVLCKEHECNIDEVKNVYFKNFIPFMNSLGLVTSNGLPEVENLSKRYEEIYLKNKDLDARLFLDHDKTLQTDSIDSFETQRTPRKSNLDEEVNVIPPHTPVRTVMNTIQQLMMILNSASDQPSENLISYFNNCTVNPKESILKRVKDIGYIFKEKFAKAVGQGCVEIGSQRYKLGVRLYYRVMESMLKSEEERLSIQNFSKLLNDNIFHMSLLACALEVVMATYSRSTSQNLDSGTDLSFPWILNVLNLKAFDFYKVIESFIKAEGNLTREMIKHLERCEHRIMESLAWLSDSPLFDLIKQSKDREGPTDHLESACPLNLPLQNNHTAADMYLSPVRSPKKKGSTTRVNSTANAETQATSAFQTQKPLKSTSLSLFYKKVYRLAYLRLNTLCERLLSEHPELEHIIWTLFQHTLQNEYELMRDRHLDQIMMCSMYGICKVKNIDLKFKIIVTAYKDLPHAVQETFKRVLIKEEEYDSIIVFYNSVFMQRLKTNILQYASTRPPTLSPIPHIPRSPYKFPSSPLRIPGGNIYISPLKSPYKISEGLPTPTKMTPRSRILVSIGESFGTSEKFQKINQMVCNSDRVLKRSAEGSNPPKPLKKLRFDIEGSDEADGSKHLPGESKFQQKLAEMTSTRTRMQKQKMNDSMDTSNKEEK

[16] = target: NFE2L1 (prey, CIC format) (human) (UniProt Q14494); assay: SIMPL ELISA, bait-IN/prey-CIC
[17] = target: GTF2F2 (prey, CIC format) (human) (UniProt P13984); assay: SIMPL ELISA, bait-IN/prey-CIC
[18] = target: T5, NOD1 (prey, CIC format) (human) (UniProt Q9Y239); assay: SIMPL ELISA, bait-IN/prey-CIC
T5 sequence (looked up): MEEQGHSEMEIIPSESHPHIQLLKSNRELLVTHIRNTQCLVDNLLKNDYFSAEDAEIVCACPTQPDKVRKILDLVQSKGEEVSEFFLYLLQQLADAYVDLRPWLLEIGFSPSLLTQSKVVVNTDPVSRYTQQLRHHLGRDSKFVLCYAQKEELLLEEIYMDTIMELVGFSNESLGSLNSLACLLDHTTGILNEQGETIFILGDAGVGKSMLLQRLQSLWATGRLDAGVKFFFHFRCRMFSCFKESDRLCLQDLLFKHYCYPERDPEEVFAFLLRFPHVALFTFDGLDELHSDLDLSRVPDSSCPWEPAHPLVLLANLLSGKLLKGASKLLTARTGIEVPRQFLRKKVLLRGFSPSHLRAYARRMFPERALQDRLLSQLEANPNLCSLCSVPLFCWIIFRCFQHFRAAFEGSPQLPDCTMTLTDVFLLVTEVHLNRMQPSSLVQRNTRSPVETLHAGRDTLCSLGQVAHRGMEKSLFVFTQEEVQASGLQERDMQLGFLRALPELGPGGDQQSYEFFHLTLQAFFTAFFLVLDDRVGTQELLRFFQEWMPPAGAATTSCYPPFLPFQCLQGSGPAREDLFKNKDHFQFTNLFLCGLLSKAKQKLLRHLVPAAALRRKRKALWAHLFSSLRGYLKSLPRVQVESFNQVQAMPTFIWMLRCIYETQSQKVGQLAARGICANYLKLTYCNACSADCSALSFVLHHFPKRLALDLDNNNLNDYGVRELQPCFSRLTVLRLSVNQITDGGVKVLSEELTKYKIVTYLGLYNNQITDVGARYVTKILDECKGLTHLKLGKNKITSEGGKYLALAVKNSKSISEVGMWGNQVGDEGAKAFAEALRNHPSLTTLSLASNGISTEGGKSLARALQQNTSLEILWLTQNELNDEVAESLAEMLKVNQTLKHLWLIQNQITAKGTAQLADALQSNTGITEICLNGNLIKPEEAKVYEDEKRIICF

[19] = target: RPA3 (prey, CIC format) (human) (UniProt P35244); assay: SIMPL ELISA, bait-IN/prey-CIC
[20] = target: HSP90AA1 (prey, CIC format) (human) (UniProt P07900); assay: SIMPL ELISA, bait-IN/prey-CIC
[21] = target: IGFBP4 (prey, CIC format) (human) (UniProt P22692); assay: SIMPL ELISA, bait-IN/prey-CIC
[22] = target: HGS (prey, CIC format) (human) (UniProt O14964); assay: SIMPL ELISA, bait-IN/prey-CIC
[23] = target: SRC (prey, CIC format) (human) (UniProt P12931); assay: SIMPL ELISA, bait-IN/prey-CIC
[24] = target: PDGFRB (prey, CIC format) (human) (UniProt P09619); assay: SIMPL ELISA, bait-IN/prey-CIC
[25] = target: CXCR2 (prey, CIC format) (human) (UniProt P25025); assay: SIMPL ELISA, bait-IN/prey-CIC
[26] = target: SMAD4 (prey, CIC format) (human) (UniProt Q13485); assay: SIMPL ELISA, bait-IN/prey-CIC
SMAD4 (prey, CIC format) (human), sequence (Q13485 whole entry): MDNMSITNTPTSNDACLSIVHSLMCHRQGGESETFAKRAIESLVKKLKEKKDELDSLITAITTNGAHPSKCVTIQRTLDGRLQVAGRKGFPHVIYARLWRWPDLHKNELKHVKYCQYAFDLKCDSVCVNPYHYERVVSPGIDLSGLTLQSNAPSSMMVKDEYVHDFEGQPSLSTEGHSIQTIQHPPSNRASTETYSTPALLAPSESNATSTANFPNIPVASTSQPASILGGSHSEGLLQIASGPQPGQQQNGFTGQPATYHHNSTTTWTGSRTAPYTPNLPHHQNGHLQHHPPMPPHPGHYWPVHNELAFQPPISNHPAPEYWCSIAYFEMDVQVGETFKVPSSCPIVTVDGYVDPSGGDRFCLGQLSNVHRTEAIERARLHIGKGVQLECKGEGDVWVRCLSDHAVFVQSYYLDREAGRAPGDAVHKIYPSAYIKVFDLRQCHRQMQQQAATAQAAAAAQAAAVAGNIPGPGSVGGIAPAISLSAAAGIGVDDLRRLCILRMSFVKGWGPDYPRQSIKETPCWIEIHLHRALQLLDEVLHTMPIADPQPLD

FOS (prey, CIC format) (human), sequence (P01100 whole entry): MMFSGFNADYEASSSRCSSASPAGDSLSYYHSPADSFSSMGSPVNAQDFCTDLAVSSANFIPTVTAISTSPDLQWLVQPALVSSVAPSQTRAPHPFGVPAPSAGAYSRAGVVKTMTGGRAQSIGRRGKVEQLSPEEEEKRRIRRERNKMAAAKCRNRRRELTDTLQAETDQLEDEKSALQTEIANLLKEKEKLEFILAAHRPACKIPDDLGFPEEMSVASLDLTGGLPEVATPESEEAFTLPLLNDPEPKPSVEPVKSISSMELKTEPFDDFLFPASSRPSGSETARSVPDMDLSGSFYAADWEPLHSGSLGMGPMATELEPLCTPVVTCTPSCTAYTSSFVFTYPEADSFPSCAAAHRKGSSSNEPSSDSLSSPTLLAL
RIPK2 (bait, IN format), sequence (O43353 whole entry): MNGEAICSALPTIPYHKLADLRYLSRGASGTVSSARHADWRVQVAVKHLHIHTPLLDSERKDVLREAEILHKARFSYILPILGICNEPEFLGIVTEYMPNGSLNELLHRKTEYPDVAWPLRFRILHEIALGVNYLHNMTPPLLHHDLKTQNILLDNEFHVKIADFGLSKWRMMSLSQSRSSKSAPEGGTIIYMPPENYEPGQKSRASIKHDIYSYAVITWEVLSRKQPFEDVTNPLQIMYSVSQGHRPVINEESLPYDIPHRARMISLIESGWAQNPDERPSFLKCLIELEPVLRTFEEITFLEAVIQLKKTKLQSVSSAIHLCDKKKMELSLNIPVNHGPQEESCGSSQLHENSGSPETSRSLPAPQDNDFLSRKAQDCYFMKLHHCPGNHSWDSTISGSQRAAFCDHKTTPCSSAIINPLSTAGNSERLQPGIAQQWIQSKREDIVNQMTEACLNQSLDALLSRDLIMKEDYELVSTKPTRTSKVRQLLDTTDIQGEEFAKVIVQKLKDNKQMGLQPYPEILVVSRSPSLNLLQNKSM
IGFBP4 (prey, CIC format) (human), sequence (P22692 22-258 limits assumed): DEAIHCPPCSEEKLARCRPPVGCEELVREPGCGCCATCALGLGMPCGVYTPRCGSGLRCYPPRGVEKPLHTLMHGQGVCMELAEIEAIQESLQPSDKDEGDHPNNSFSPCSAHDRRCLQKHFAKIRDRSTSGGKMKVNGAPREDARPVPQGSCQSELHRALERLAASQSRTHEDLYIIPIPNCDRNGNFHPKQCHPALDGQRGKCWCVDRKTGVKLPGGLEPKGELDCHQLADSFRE
CDK6 (prey, CIC format) (human), sequence (Q00534 whole entry): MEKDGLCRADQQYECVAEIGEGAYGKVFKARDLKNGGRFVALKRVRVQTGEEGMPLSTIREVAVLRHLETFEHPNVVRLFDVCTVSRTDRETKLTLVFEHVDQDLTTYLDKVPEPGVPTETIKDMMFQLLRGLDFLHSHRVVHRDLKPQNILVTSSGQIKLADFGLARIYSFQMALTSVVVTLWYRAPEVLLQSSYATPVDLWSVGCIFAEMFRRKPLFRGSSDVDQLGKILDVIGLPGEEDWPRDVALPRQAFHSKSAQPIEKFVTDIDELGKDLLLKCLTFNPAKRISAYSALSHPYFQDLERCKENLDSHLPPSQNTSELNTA
RAP1A (prey, CIC format) (human), sequence (P62834 whole entry): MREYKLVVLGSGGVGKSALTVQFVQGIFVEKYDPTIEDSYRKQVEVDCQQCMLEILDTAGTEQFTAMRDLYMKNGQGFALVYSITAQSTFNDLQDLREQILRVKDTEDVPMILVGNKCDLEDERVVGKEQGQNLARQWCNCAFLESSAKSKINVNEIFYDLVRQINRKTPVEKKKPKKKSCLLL
PEX16 (prey, CIC format) (human), sequence (Q9Y5Y5 whole entry): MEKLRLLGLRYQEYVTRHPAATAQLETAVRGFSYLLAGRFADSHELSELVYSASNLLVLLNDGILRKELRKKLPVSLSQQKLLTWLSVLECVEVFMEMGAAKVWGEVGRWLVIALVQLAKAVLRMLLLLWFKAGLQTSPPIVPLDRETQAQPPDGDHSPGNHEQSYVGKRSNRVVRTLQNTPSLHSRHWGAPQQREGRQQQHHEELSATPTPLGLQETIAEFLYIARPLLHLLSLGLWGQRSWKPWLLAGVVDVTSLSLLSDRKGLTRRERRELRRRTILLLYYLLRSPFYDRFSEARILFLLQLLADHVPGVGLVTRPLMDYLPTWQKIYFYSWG
CXCR2 (prey, CIC format) (human), sequence (P25025 whole entry): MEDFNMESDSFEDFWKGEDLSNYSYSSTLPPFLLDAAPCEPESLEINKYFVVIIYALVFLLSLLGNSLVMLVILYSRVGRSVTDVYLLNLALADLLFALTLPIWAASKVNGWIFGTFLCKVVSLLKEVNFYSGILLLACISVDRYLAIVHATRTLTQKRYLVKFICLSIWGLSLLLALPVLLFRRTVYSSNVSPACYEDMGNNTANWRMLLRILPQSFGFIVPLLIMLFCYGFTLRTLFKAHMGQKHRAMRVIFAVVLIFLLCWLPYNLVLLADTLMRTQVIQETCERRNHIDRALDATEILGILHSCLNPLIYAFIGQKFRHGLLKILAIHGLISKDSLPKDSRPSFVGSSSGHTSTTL
FGFR1 (prey, CIC format) (human), sequence (P11362 22-822 limits assumed): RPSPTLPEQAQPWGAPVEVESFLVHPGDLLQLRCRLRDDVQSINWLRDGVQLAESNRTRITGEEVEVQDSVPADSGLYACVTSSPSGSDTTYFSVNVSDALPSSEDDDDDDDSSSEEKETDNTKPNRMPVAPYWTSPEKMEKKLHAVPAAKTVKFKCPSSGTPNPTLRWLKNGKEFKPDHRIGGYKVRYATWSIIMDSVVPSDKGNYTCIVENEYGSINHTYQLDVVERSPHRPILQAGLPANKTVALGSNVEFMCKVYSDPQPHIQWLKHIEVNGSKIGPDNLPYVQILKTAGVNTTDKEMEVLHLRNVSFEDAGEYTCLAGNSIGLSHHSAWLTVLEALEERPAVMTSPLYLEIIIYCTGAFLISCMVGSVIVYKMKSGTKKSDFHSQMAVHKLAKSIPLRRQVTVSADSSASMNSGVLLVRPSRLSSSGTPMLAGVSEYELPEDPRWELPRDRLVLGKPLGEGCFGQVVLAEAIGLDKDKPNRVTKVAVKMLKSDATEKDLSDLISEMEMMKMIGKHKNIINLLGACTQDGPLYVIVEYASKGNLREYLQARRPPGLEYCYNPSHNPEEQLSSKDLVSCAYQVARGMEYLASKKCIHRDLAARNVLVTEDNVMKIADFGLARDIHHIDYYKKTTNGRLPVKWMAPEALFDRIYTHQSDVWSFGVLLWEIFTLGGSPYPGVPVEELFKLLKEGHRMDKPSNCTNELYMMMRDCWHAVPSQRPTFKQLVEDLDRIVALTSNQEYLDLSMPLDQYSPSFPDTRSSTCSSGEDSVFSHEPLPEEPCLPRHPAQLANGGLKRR
CCNA1 (prey, CIC format) (human), sequence (P78396 whole entry): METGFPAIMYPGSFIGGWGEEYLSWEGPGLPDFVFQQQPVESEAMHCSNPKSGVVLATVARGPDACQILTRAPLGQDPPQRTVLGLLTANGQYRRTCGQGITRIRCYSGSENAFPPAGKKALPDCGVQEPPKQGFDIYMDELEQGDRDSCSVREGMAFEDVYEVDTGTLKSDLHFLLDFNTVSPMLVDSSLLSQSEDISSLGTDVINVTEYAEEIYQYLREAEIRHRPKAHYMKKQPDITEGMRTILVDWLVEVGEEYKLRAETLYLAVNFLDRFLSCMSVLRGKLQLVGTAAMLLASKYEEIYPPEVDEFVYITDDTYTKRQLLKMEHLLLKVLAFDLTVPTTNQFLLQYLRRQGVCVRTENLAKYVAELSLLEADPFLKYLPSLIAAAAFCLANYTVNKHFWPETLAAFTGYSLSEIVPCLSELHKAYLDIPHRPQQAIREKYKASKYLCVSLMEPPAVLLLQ
HGS (prey, CIC format) (human), sequence (O14964 whole entry): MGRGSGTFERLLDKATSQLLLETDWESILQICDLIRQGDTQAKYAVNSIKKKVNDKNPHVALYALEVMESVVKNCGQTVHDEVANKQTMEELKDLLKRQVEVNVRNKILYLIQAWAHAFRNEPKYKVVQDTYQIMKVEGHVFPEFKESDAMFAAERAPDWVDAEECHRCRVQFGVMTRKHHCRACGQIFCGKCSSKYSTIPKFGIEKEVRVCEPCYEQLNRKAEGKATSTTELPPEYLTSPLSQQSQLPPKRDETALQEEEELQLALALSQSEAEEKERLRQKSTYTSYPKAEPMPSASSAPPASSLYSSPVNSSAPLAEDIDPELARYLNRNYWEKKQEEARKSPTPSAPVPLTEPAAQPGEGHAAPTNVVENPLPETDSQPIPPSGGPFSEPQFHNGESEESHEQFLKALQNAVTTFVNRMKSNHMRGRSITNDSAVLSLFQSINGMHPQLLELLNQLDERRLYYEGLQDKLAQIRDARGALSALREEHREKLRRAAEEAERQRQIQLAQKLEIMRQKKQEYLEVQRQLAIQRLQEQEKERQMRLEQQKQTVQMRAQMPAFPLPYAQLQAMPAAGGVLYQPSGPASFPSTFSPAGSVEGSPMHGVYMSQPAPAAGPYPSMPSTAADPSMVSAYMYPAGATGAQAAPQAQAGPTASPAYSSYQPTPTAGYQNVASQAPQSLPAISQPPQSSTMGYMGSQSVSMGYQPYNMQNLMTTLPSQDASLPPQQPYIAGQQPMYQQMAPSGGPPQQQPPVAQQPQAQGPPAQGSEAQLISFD

ARF1 (bait, IN format) (from UniProt P84077 1-181)
PLU mean [1]: 0.301
PLU mean [2]: 0.491

B2M (bait, IN format) (from UniProt P61769 21-119)
PLU mean [3]: 0.0155
PLU mean [4]: 0.0408

BAK1 (bait, IN format) (from UniProt Q16611 1-211)
PLU mean [5]: 0.564

CCND3 (bait, IN format) (from UniProt P30281 1-292)
PLU mean [6]: 2.72

CDKN1A (bait, IN format) (from UniProt P38936 1-164)
PLU mean [7]: 0.113
PLU mean [8]: 0.516

DDIT3 (bait, IN format) (from UniProt P35638 1-169)
PLU mean [9]: 0.642
PLU mean [10]: 0.0963

FBXA-196 (C. elegans bait, IN-V5/HA)
ELISA Value Replicate 1 [11]: 0.81
ELISA Value Replicate 2 [11]: 0.51
ELISA Value Replicate 1 [12]: 1.1
ELISA Value Replicate 2 [12]: 0.28

FBXA-215 (C. elegans bait, IN-V5/HA)
ELISA Value Replicate 1 [11]: 0.84
ELISA Value Replicate 2 [11]: 0.58
ELISA Value Replicate 1 [12]: 0.73
ELISA Value Replicate 2 [12]: 0.42

FGF1 (bait, IN format) (from UniProt P05230 1-155) (ligand)
PLU mean [13]: 0.334
PLU mean [14]: 0.374
PLU mean [15]: 0.324

GRAP2 (bait, IN format) (from UniProt O75791 1-330)
PLU mean [16]: 0.131

GTF2F1 (bait, IN format) (from UniProt P35269 1-517)
PLU mean [17]: 3.24
PLU mean [18]: 0.133

HIF1A (bait, IN format) (from UniProt Q16665 1-826)
PLU mean [2]: 0.324

IGF2 (bait, IN format) (from UniProt P01344 25-180) (ligand)
PLU mean [19]: 0.525
PLU mean [20]: 0.404
PLU mean [2]: 0.266
PLU mean [21]: 0.943

MAPK7 (bait, IN format) (from UniProt Q13164 1-816) (enzyme)
PLU mean [4]: 0.231

NF2 (bait, IN format) (from UniProt P35240 1-595)
PLU mean [9]: 0.481
PLU mean [22]: 0.836

PPP3CA (bait, IN format) (from UniProt Q08209 1-521)
PLU mean [9]: 0.245

PTK2/FAK (bait, IN format) (from UniProt Q05397 1-1052) (enzyme)
PLU mean [23]: 0.599

RAF1 (bait, IN format) (from UniProt P04049 1-648) (enzyme)
PLU mean [5]: 0.578

RIPK2 (bait, IN format) (from UniProt O43353 1-540)
PLU mean [24]: 0.881
PLU mean [18]: 1.17
PLU mean [21]: 0.555

SMAD3 (bait, IN format) (from UniProt P84022 1-425)
PLU mean [25]: 0.144
PLU mean [26]: 0.399

T10E9.1 (C. elegans bait, IN-V5/HA)
ELISA Value Replicate 1 [11]: 0.78
ELISA Value Replicate 2 [11]: 0.55

TNFSF10 (bait, IN format) (from UniProt P50591 1-281) (ligand)
PLU mean [6]: 0.316
